Experimental data published in patent US12286661B2, “Methods for making high intensity sweeteners” (Firmenich Incorporated, priority 2018, dated 2025).

test system: cucurbitadienol; assay: 11-OH cucurbitadienol production from cucurbitadienol by CYP450s expressed in S. cerevisiae, LCMS; type: cell-based; details: S. cerevisiae strain producing cucurbitadienol and expressing SgCPR; LCMS peak area of product vs. internal reference; hits over vector only control
Source text: DNA was obtained through gene synthesis either through Genescript, IDT, or Genewiz. For some of the cucurbitadienol synthases, cDNA or genomic DNA was obtained through 10-60 day old seedlings followed by PCR amplification using specific and degenerate primers. DNA was cloned through standard molecular biology techniques or through yeast gap repair cloning (Joska et al., 2014) into one of the following overexpression vectors: pESC-Ura, pESC-His, or pESC-LEU. Gene expression was regulated by one of the following promoters; Gall, Gal10, Tef1, or GDS. Yeast transformation was performed using Zymo Yeast Transformation Kit II. Yeast strains were grown in standard media (YPD or SC) containing the appropriate selection with 2% glucose or 2% galactose for induction of heterologous genes. Yeast strains were grown in shake flask or 96 well plates at 30° ° C., 140-250 rpm. When indicated, lanosterol synthase inhibitor, Ro 48-8071 (Cayman Chemicals) was added (50 ug/ml). Yeast samples producing mogrol precursors, mogrol and mogrosides were processed through one of the following: • Cucurbitadienol and 11-OH Cucurbitadienol: Samples cell pellets were lysed (Yeast Buster) followed by ethyl acetate extraction, drying, and resuspension in methanol. • ·Mogrol and Mogrosides: Samples cell pellets were lysed in 50% ETOH, incubated at 80° C. for 30 min, filtered, dried and resuspended in MeOH for LCMS screening.
For analyzing 11-OH cucurbitadienol, the LCMS method included the use of C8 2.1×100 mm column, gradient 60 to 90% B for 6 minutes at flow rate of 0.55 ml/min. For the enzyme screening, the LCMS method used was a Waters Acquity UPLC Protein BEH C4, 2.1×100 mm, 1.7 μm column and a gradient of 40% to 80% over 5 minutes, 95% B from 5.1 to 5.6 minutes with a flow rate of 0.55 ml/min, and ESI source positive mode single ion monitoring of 425.4.
Additional CYP450s were expressed in S. cerevisiae strain producing cucurbitadienol and expressing SgCPR. DNA and protein sequences for the CYP450 enzymes are shown in SEQ IDs 871-890 and 1024-1049 (see Table 1).

Molecule	Peak Area 11-OH CCB
SEQ ID NO. 1038/1039: CYP450 enzyme (DNA/protein SEQ ID NO) producing 11-OH cucurbitadienol (protein, listed as Siraitia grosvenorii) MLSFLGFAAFFFCFFLIHSLFKLFSAARRKLPLPPGSMGWPYMGETLQLYSQDPNVFFASKKKRYGPIFKSHILGYPCVMLSSPEAVKFVLVTKAHLFKPTFPASKERMLGKNAIFFHQGDYHAKLRRLVLRTFMPEAIRIMVPSIESIAKNTVQSWEGQLINTFQEMKMFAFEVSLLSIFGKDEALYFEDLKRCYYILEKGYNSMPINLPGTLFHKAMKARKELAHILNKILSTRREMKPDHNDLLGSFMGQKEGLTDEQIADNVIGLIFAARDTTASVLTWILKYLGENPSVLQAVTAEQEAIMKQKRSAHDNLTWGDTKNMPITSRVIQETLRVASVLSFTFREAVEDVEFDGYLIPKGWKVLPLFRNIHHSPEIFPQPDKFDPSRFEVAQKPNTYMPFGSGTHSCPGNELAKLEMLVLLHHLTTKYRWSVVGAQEGIQYGPFALPHNGLPIRISLKK	0.3528
SEQ ID NO. 1046/1047: CYP450 enzyme (DNA/protein SEQ ID NO) producing 11-OH cucurbitadienol (protein, listed as Siraitia grosvenorii) MELWLWLLGASVGAYVFVFGILRNLNQWRFVTRHRNRYNLPPGDMGWPLIGTLLPFLQAFRSGRPDSFIHYFASTYGKIGMYKTYLFGSPSVIVCLPEVCRHVLMNDEQFVFGYSKATRILTGSKALNTVPKAEHRRLRRLIASLISGNDALSVYIGHVEGIVINCLQEWGSMKKPVEFLSEMKTVAFKVLLHIFIGSTSAAFIDKMEKLYTDFHLGFMSTPIDLPGTTFSRALKARNELIRIFENVLKEKRANLKSKEGENRKKDMTDLLLEVRDEDGQGLDDGCIIDLLIGFFFAGHETSAHSIMRAIMFLSENPETLLKAKAEQEQIVKARPADDQHKGLTMKEIKQMEYLSKVIDETLRKTSLAFTLSRETKVDVNLNGYTIPKGWKILVWTRAVHMDPEIYESPQKFDPSRWDNSKRRAGSFIPFGAGMRLCPGIDLSKLEIAIFLHYFIYGGFRLERVNPNCPENYLPLARPTDNCLARVVRDS	0.2276
SEQ ID NO. 1040/1041: CYP450 enzyme (DNA/protein SEQ ID NO) producing 11-OH cucurbitadienol (protein, listed as Siraitia grosvenorii) MEVELTNFWVMILAAVLGFCVFVFGFLRRFNDLWTMVKLGKKVYKTLPPGDMGWPLIGSSLWFYKAFSASGDPDSFIKHLRSRYGRVGMYKTHLFGKPAVIVTDPEICRRVYSDDKHFVMSYPKSVKILGTGSLSRIDHRITHRFMAAPINGSEALARYVGFIEQVVVRGLEEWSSMRKPIELLHEIKRLTFRIIIHVFMGSALDPHIPKLEKLYAELSAAVFVAFAIDVPGSTYHRALKAKEEIQNILRPVIEEKRRIIEKNEEMEDKCQLDAVIKGKNGKGEKIFDNDAIIDMLLGLLYAGHHTSAHGTMWALIQLLEHPQVYEKAKEEQELIMKQRPSTQKGLIFNEIKQMTYLVKVINEMLRRVSIVFANFREAATDVNINGYTIPKGWVVPVWIKGVHMDPQIYPNPEEFNPSRWDTHTPKPGAFIPFGFGNRFCPGNELAKLEITILLHHFLLKYRWERVNPKASITSVPMPSPIDQCLAKITAIPSS	0.3523
SEQ ID NO. 1034/1035: CYP450 enzyme (DNA/protein SEQ ID NO) producing 11-OH cucurbitadienol (protein, Cucurbita pepo) MEIINGVFLILPLGFVLVFEVLKRLNGLYYAVKLGKKWGELPPGDLSWPLLGSTLSFLKSFTVGPPESFIRIFTTRYGKVDMYKTHMFGRASILVCKPEICRQVLIDETKFVPSYPACMKRLFGRKSLIRVSKAEHRKLRRMTMAPISSHAALEIYIEHTEHTVISGLEEWSSVEKPLKLLTEIKELTFKIIWNIFMGSTSIDYTTKEMEALYDDVALGLFCFPINFPGFNFHKSLKARKRLYEILLSIVNEKRLMKKSKGESWEAKDMMDLMTEVEDEDGEGMDNETITDLIFGKLFAGHETSAFTTMWAIIFLTDHPHIFQRAKEEQEDIIRRRPSTQKGINLVEFKQMKFLSQVIDETLRLSSIAFATFREATTDININGKLIPKGWKVILWHRGLYMDEELHPSPQDFNPSRWDDFIGNPGAFTPFGLGVRLCPGRDLAKLEISIFLHHFLLNYKIERYNPQCQLTYLPLPHPKDKCLARVLKAAGQCV	0.3854
SEQ ID NO. 1042/1043: CYP450 enzyme (DNA/protein SEQ ID NO) producing 11-OH cucurbitadienol (protein, listed as Siraitia grosvenorii) MAIFFFFFFFLLVVSVVFVFLFLRASRFRRVRLPPGSLGLPLIGETLQLISAYKTENPEPFIDERVRRFGAVFTTHLFGEPTVFSADWETNRFILQNEEKLFECSYPGSISNLLGKHSLLLMKGNLHKRMHSLTMSFANSSIIRDHLLLDVDRLIRLNLDSWTGRIFLMEEAKKITFELAVKQLMSFDRCEWTQNLMKEYLLVIEGFFTVPLPLLSTTYRRAIRARTKVAEALGLVVRQRRKESDAGKRKNDMLGALLAAEDALSDDQIVDFLLALLVAGYETTSTTMTLAVKFLTEAPLALTQLQEEHEQIKARKKEADQHLQWNDYKSMPFTQCVVNETLRVANIISGVFRRAMTDINIKGYTIPKGWKVFASFRAVHLDHDHFKDARSFNPWRWQQNTSGSTVNAFTPFGGGPRLCPGYELARVELSVFLHHFVTQFSWVPAEDDKLVFFPTTRTQKRYPINVMRKNETRQRKDSLDSRHMKGQESSFDM	0.3326
SEQ ID NO. 1036/1037: CYP450 enzyme (DNA/protein SEQ ID NO) producing 11-OH cucurbitadienol (protein, listed as Lagenaria siceraria) MELIINNWLLILSCVGFALGLGVLKRLNNLYYAIKLGKKWDEVPPGDLSWPLLGSTLSFIKYFTLGPPHNFIAQFSNRYGKVDMYKTHIFGRASIIVCKPEICRQVLTDETKFAPGYPTTMTSLFGRRSLHRVSKVEHRKLRRLTTTPISSHAALELYIDHIEHTVINGLEEWSSMEKPLELLTVIKELTFKIIWNIFMGSTPMGSIAIREMEALYNDISLGFFCLPINFPGFYFHKSLKARKRLHEILQCIVNEKRLVKKSKGETWEAKDMMDLMIEVRDEDGEGMDDETIVDLIFGKLFAGQETSAFTTMWAILFLTNNPHVFQKAKVIDETLRVSSITFATFREAMTDVKINGKIIPKGWKVILWLRELNMDEKLHTSPQEFNPSRWDNFIGNPGAFTPFGLGVRMCPGRDLAKLEISIFLHYFLLNYKVEQLNPQCQLDYLPIPHPKDKCLARVLKVA	0.3833
SEQ ID NO. 1032/1033: CYP450 enzyme (DNA/protein SEQ ID NO) producing 11-OH cucurbitadienol (protein, listed as Cucurbita maxima) MWTIVVGLATLAVAYYIHWINKWKDSKFNGVLPPGTMGLPLIGETLQLSRPSDSLDVHPFIKKKVKRYGSIFKTCLAGRPVVVSTDAEFNNYIMLQEGRAVEMWYLDTLSKFFGLDTEWLKALGFIHKYIRSITLNHFGAESLRERFLPRIEESAKETLCYWATQPSVEVKDSAAVMVFRTSMVKMVSKDSSKLLTGGLTKKFTGLLGGFLTLPINVPGTTYNKCMKDMKEIQKKLREILEGRLASGAGSDEDFLGQAVKDKGSQKFISDDFIIQLLFSISFASFESISTTLTLILNYLADHPDVVKELEAEHEAIRNARADPDGPITWEEYKSMTFTLHVIFETLRLGSVTPALLRKTTKELQINGYTIPEGWTVMLVTASRHRDPAVYKDPHTFNPWRWKELDSITIQKNFMPFGGGLRHCAGAEYSKVYLCTFLHILFTKYRWTKLKGGKVARAHILSFEDGLHMKFTPKE	0.4459
SEQ ID NO. 1044/1045: CYP450 enzyme (DNA/protein SEQ ID NO) producing 11-OH cucurbitadienol (protein, listed as Siraitia grosvenorii) MDELKWFVLIPATFFLVVFVFEVLKRLNGWYYATKLWKIWDELPPGDMGWPLLGSTLSYINDFTAGQPQNFIRTFSNRYGKADMYKTHILGRASIIICTPEICRQVLTNEDKFKPSLPGNMKILSGRKSLMQVSKAEHRRLRRLTMAPISGHAALEMYISHIQATVVGGLEEWASIQRPVELVTEIKRLTFKVIWNIFMGSTSLDSSMGAMEALFSDVAVGFLSLPINFPGFYFHKSLKARKRLIEILQSIINEKRLVKKSKGESWEAKDMMDLMIEVKDEDGEELDDETIIDLIFGKLFAGHETSAFTAMWAVLFLTDHPQIFQKAKEEQEEIIRRRPSTQKGINLSDYKQMKFLSQVIDETLRVSCITSLLFREATADVEINGKIIPKGWRVLPWLGMLYMDENLFPSPQEFNPSRWDNFVPKPGAFIPFGVGNRFCPGSDLAKLEISIFLHYFLLNYKVERLNPKCHLTCLPFPHPTDKCLARVHKVA	0.2664
